B1: Lin-Adu (bispecific antibody)
heavy: not shown
light: DIQMTQSPSSLSASVGDRVTITCRASESVDNYGISFMNWFQQKPGKAPKLLIYAASNQGSGVPSRFSGSGSGTDFTLTISSLQPDDFATYYCQQSKEVPWTFGQGTKVEIKRTVAAPSVFIFPPSDEQLKSGTASVVCLLNNFYPREAKVQWKVDNALQSGNSQESVTEQDSKDSTYSLSSTLTLSKADYEKHKVYACEVTHQGLSSPVTKSFNRGEC
B2: SM06-Adu (bispecific antibody)
heavy: not shown
light: DIQLTQSPSSLSASVGDRVTISCRASQDISNYLNWYQQKPGKAPKLLIYYTSILHSGVPSRFSGSGSGTEFTLTISSLQPEDFATYFCQQGNTLPWTFGGGTKVEIKRTVAAPSVFIFPPSDEQLKSGTASVVCLLNNFYPREAKVQWKVDNALQSGNSQESVTEQDSKDSTYSLSSTLTLSKADYEKHKVYACEVTHQGLSSPVTKSFNRGEC

Key:
[1] = biological target: T1, CD33 on HMC-3 cells (human, UniProt P20138 18-364); test: flow cytometry on fixed HMC-3 cells, 10 µg/mL, anti-human Fc Alexa Fluor 488; graded + (weakest) to +++++ (highest)
T1 construct: Native antigen on HMC-3
T1 sequence (P20138 18-364 limits assumed): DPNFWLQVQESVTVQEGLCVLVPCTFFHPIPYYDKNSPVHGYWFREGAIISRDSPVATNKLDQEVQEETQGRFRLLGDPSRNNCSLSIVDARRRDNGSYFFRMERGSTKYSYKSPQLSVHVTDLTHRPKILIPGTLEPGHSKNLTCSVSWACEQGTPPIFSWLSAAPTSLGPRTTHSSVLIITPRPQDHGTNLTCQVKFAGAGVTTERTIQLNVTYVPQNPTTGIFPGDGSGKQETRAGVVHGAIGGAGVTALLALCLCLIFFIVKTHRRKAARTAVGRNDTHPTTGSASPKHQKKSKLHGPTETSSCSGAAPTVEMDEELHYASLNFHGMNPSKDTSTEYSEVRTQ
Experimental: The binding of different bispecific antibodies to HMC-3 cells is evaluated. Briefly, HMC-3 cells are seeded onto 6 well plate at a density of […]. After plating and culture for overnight, cells are detached with TrypLE™ Express enzyme. Cells are centrifuged at 300 g for 5 minutes. Cell pellets are washed once with phosphate buffer saline (pH7.4). Cells are fixed with 4% PFA in PBS for 5 minutes at room temperature. Cells are washed once with PBS. Bispecifc antibodies at a concentration of10 μg/mL are incubated with HMC-3 for 1 hour at room temperature. Cells are then washed twice with PBS. Cells are incubated with anti-human Fc Alexafluor 488-conjugated antibody diluted 1:1000 in PBS for 1 hour at room temperature. Cells are washed twice with PBS. Cell are centrifuged at 300 g for 5 minutes. Cell pellet is resuspended with 1% BSA in PBS and proceed to flow cytometry. FIG. 5 illustrates a representative result of HMC-3 cell binding by SM03-Adu.

[2] = biological target: T2, human CD22 protein (Sino Biological) (human); test: ELISA on coated human CD22 protein, anti-human Fc HRP detection
T2 construct: Bought protein coated on ELISA strips
Experimental: The binding of the different bispecific antibodies to their respective antigens is tested with standard ELISA method known to those skilled in the art. Using SM03-Adu as an example, 2 μg/mL of human CD22 protein (Sino Biological) or 5 μg/mL of Aβ oligomer are coated separately onto ELISA stripes (Santa Cruz) overnight at 4° C. or 1 hour at room temperature, respectively. ELISA stripes are blocked with 1% BSA in PBS. Stripes are washed 2 times with PBS. Bispecific antibodies are added in the following concentration, e.g. 10 μg/mL, 2 μg/mL, 0.4 μg/mL, 0.08 μg/mL, 0.016 μg/mL, 0.0032 μg/mL, 0.00064 μg/mL and incubated for 1 hour at room temperature. Stripes are washed 3 times with PBS. Stripes are incubated with anti-human Fc HRP-conjugated antibody diluted 1:6000 in PBS for 1 hour at room temperature. Fifty μL TMB (Invitrogem) is then added. After 30 minutes incubation at room temperature, 50 μL stop solution (2N H2SO4) is added to stop the reaction. Coloration are read by plate reader.

Binder | binding result [1] | EC50 (read off the curve) [2] [mg/L]
B1 | binds | 
B2 |  | ~0.1
